Assay results from patent US20230365640A1.
Several values for one entry are separate records, joined by “and”; a condition that tells them apart may be missing. Equal values may be shown once.

Target: recombinant SARS-CoV-2 RBD (His-tagged SARS-CoV-2 RBD fusion protein) (SARS-CoV-2), P0DTC2
Conditions: remark: other sources report otherwise

B1: DC-SIGN.Fc protein, Q9NNX6 59-404 (Fc fusion)
chain: QVSKVPSSISQEQSRQDAIYQNLTQLKAAVGELSEKSKLQEIYQELTQLKAAVGELPEKSKLQEIYQELTRLKAAVGELPEKSKLQEIYQELTWLKAAVGELPEKSKMQEIYQELTRLKAAVGELPEKSKQQEIYQELTRLKAAVGELPEKSKQQEIYQELTRLKAAVGELPEKSKQQEIYQELTQLKAAVERLCHPCPWEWTFFQGNCYFMSNSQRNWHDSITACKEVGAQLVVIKSAEEQNFLQLQSSRSNRFTWMGLSDLNQEGTWQWVDGSPLLPSFKQYWNRGEPNNVGEEDCAEFSGNGWNDDKCNLAKFWICKKSAASCSRDEEQFLSPAPATPNPPPA
**Q.** Which results are given for B1?
**A.** Kd: 18.7 µM and 16.1 µM; koff: 0.000588 s⁻¹ and 0.000614 s⁻¹; kon: 339 M⁻¹ s⁻¹
